The sequences below were run on Escherichia coli TOP10 (assay: shrunken log2 fold change of peptide-encoding DNA abundance (4.5 h post-induction vs induction); higher = less antimicrobial activity (less host growth inhibition)). Details: time post-induction: 4.5 h; library: site-saturation at positions 5, 18, 19, 20.
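Note: peptides expressed intracellularly from a pBAD plasmid library in pooled LB shake-flask culture, induced with 0.3% L-arabinose, DNA abundance read by NGS, three biological replicates, DESeq2 with apeglm shrinkage.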

Row | Sequence | shrunken log2 fold change
1 | RRIRYRPPRLPRPRPRPGQAPRP | 0.0475
2 | RRIRYRPPRLPRPRPRPGRDPRP | -0.204
3 | RRIRYRPPRLPRPRPRPGRGPRP | 0.254
4 | RRIRYRPPRLPRPRPRPGSMPRP | -0.182
5 | RRIRYRPPRLPRPRPRPGTYPRP | -0.0385
6 | RRIRYRPPRLPRPRPRPGVPPRP | 0.241
7 | RRIRYRPPRLPRPRPRPGWFPRP | -0.112
8 | RRIRYRPPRLPRPRPRPGWLPRP | 0.0173
9 | RRIRYRPPRLPRPRPRPGYRPRP | -0.46
10 | RRIRYRPPRLPRPRPRPHAEPRP | -0.144
11 | RRIRYRPPRLPRPRPRPHAHPRP | -0.479
12 | RRIRYRPPRLPRPRPRPHCCPRP | -0.0599
13 | RRIRYRPPRLPRPRPRPHDEPRP | -0.0568
14 | RRIRYRPPRLPRPRPRPHDIPRP | -0.00174
15 | RRIRYRPPRLPRPRPRPHGFPRP | 0.0238
16 | RRIRYRPPRLPRPRPRPHGKPRP | 0.0161
17 | RRIRYRPPRLPRPRPRPHGTPRP | -0.209
18 | RRIRYRPPRLPRPRPRPHHFPRP | -0.288
19 | RRIRYRPPRLPRPRPRPHHKPRP | -0.319
20 | RRIRYRPPRLPRPRPRPHHVPRP | -0.00992
21 | RRIRYRPPRLPRPRPRPHICPRP | -0.0358
22 | RRIRYRPPRLPRPRPRPHIEPRP | -1.47

Row | Sequence | shrunken log2 fold change
23 | RRIRYRPPRLPRPRPRPHILPRP | -0.288
24 | RRIRYRPPRLPRPRPRPHLFPRP | -0.313
25 | RRIRYRPPRLPRPRPRPHMWPRP | -0.621
26 | RRIRYRPPRLPRPRPRPHQNPRP | -0.527
27 | RRIRYRPPRLPRPRPRPHRQPRP | -0.0423
28 | RRIRYRPPRLPRPRPRPHSLPRP | -0.184
29 | RRIRYRPPRLPRPRPRPHSMPRP | -0.0542
30 | RRIRYRPPRLPRPRPRPHSVPRP | -0.07
31 | RRIRYRPPRLPRPRPRPHWLPRP | -0.0432
32 | RRIRYRPPRLPRPRPRPHWQPRP | -0.0696
33 | RRIRYRPPRLPRPRPRPHWRPRP | -0.0836
34 | RRIRYRPPRLPRPRPRPIAWPRP | -0.0381
35 | RRIRYRPPRLPRPRPRPICIPRP | -0.08
36 | RRIRYRPPRLPRPRPRPICSPRP | 0.0329
37 | RRIRYRPPRLPRPRPRPICVPRP | -0.293
38 | RRIRYRPPRLPRPRPRPIEDPRP | -0.274
39 | RRIRYRPPRLPRPRPRPIGNPRP | 0.167
40 | RRIRYRPPRLPRPRPRPIICPRP | -0.185
41 | RRIRYRPPRLPRPRPRPIIEPRP | -0.643
42 | RRIRYRPPRLPRPRPRPIITPRP | -0.667
43 | RRIRYRPPRLPRPRPRPIKQPRP | -0.0386
44 | RRIRYRPPRLPRPRPRPIMHPRP | -0.483

Row | Sequence | shrunken log2 fold change
45 | RRIRYRPPRLPRPRPRPIMSPRP | -0.114
46 | RRIRYRPPRLPRPRPRPIPNPRP | -0.336
47 | RRIRYRPPRLPRPRPRPIPVPRP | -0.0888
48 | RRIRYRPPRLPRPRPRPISHPRP | -0.675
49 | RRIRYRPPRLPRPRPRPIVNPRP | -0.558
50 | RRIRYRPPRLPRPRPRPIWCPRP | -0.268
51 | RRIRYRPPRLPRPRPRPIWIPRP | -0.0319
52 | RRIRYRPPRLPRPRPRPKCLPRP | -0.245
53 | RRIRYRPPRLPRPRPRPKDCPRP | -0.494
54 | RRIRYRPPRLPRPRPRPKDIPRP | -0.109
55 | RRIRYRPPRLPRPRPRPKDPPRP | -0.236
56 | RRIRYRPPRLPRPRPRPKDTPRP | -0.392
57 | RRIRYRPPRLPRPRPRPKELPRP | -0.0199
58 | RRIRYRPPRLPRPRPRPKEVPRP | 0.0274
59 | RRIRYRPPRLPRPRPRPKFKPRP | -0.319
60 | RRIRYRPPRLPRPRPRPKFYPRP | 0.0354
61 | RRIRYRPPRLPRPRPRPKHYPRP | -0.895
62 | RRIRYRPPRLPRPRPRPKIWPRP | -0.475
63 | RRIRYRPPRLPRPRPRPKKEPRP | -0.00181
64 | RRIRYRPPRLPRPRPRPKLHPRP | -0.431
65 | RRIRYRPPRLPRPRPRPKMDPRP | 0.0399
66 | RRIRYRPPRLPRPRPRPKPVPRP | 0.218

Row | Sequence | shrunken log2 fold change
67 | RRIRYRPPRLPRPRPRPKRAPRP | 0.28
68 | RRIRYRPPRLPRPRPRPKRMPRP | -0.207
69 | RRIRYRPPRLPRPRPRPKSFPRP | -0.0139
70 | RRIRYRPPRLPRPRPRPKVPPRP | 0.0215
71 | RRIRYRPPRLPRPRPRPKYAPRP | -0.532
72 | RRIRYRPPRLPRPRPRPKYCPRP | 0.0325
73 | RRIRYRPPRLPRPRPRPLAGPRP | 0.0192
74 | RRIRYRPPRLPRPRPRPLCEPRP | -0.238
75 | RRIRYRPPRLPRPRPRPLDFPRP | -0.269
76 | RRIRYRPPRLPRPRPRPLDTPRP | -0.429
77 | RRIRYRPPRLPRPRPRPLGNPRP | 0.0523
78 | RRIRYRPPRLPRPRPRPLGQPRP | -0.261
79 | RRIRYRPPRLPRPRPRPLHQPRP | -0.608
80 | RRIRYRPPRLPRPRPRPLHSPRP | -0.803
81 | RRIRYRPPRLPRPRPRPLIPPRP | -0.671
82 | RRIRYRPPRLPRPRPRPLISPRP | -0.596
83 | RRIRYRPPRLPRPRPRPLKGPRP | -0.00142
84 | RRIRYRPPRLPRPRPRPLLHPRP | -0.541
85 | RRIRYRPPRLPRPRPRPLNEPRP | -0.0438
86 | RRIRYRPPRLPRPRPRPLPAPRP | -0.165
87 | RRIRYRPPRLPRPRPRPLPKPRP | 0.116
88 | RRIRYRPPRLPRPRPRPLQKPRP | -0.0364

Row | Sequence | shrunken log2 fold change
89 | RRIRYRPPRLPRPRPRPLQLPRP | -1.13
90 | RRIRYRPPRLPRPRPRPLSDPRP | -0.108
91 | RRIRYRPPRLPRPRPRPLSNPRP | -0.233
92 | RRIRYRPPRLPRPRPRPLSRPRP | -0.155
93 | RRIRYRPPRLPRPRPRPLSVPRP | -0.576
94 | RRIRYRPPRLPRPRPRPLSWPRP | -0.0279
95 | RRIRYRPPRLPRPRPRPLSYPRP | -0.273
96 | RRIRYRPPRLPRPRPRPLTKPRP | -0.281
97 | RRIRYRPPRLPRPRPRPLVDPRP | -0.289
98 | RRIRYRPPRLPRPRPRPLWIPRP | -0.103
99 | RRIRYRPPRLPRPRPRPLYDPRP | -0.51
100 | RRIRYRPPRLPRPRPRPLYKPRP | -0.229
101 | RRIRYRPPRLPRPRPRPLYRPRP | -0.335
102 | RRIRYRPPRLPRPRPRPMCDPRP | -0.987
103 | RRIRYRPPRLPRPRPRPMDHPRP | -0.237
104 | RRIRYRPPRLPRPRPRPMDNPRP | -0.0386
105 | RRIRYRPPRLPRPRPRPMDWPRP | 0.0155
106 | RRIRYRPPRLPRPRPRPMEDPRP | -0.0944
107 | RRIRYRPPRLPRPRPRPMFLPRP | -0.377
108 | RRIRYRPPRLPRPRPRPMFRPRP | -0.296
109 | RRIRYRPPRLPRPRPRPMFSPRP | -1.07

From the supplement of paper PMC9112550, “Optimization of the antimicrobial peptide Bac7 by deep mutational scanning” (BMC Biology, 2022)
